Measurements reported in paper PMC9452295 (2022).

Assays:
[1] = biological target: T1, MRAS(1–178)–Avi, biotinylated, wild type (human, UniProt O14807 1-178, biotin on the Avi tag); test: SPR; +PP1Cα
T1 chain: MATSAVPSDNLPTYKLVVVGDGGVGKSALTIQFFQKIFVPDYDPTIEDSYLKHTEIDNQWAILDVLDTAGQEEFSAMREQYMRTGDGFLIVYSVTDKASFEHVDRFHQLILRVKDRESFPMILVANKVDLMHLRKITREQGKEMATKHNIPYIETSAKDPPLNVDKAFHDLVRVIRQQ

[2] = biological target: T1, MRAS(1–178)–Avi, biotinylated, wild type; test: SPR; +PP1Cα(P50R)

B1: SHOC2 (residues 80–582, LRR domain), wild type (domain or fragment)
chain: GTRKKSSNAEVIKELNKCREENSMRLDLSKRSIHILPSSIKELTQLTELYLYSNKLQSLPAEVGCLVNLMTLALSENSLTSLPDSLDNLKKLRMLDLRHNKLREIPSVVYRLDSLTTLYLRFNRITTVEKDIKNLSKLSMLSIRENKIKQLPAEIGELCNLITLDVAHNQLEHLPKEIGNCTQITNLDLQHNELLDLPDTIGNLSSLSRLGLRYNRLSAIPRSLAKCSALEELNLENNNISTLPESLLSSLVKLNSLTLARNCFQLYPVGGPSQFSTIYSLNMEHNRINKIPFGIFSRAKVLSKLNMKDNQLTSLPLDFGTWTSMVELNLATNQLTKIPEDVSGLVSLEVLILSNNLLKKLPHGLGNLRKLRELDLEENKLESLPNEIAYLKDLQKLVLTNNQLTTLPRGIGHLTNLTHLGLGENLLTHLPEEIGTLENLEELYLNDNPNLHSLPFELALCSKLSIMSIENCPLSHLPPQIVAGGPSFIIQFLKMQGPYRAMV
B1 showed a Kd [1] of 86.3 nM and a Kd [2] of 34.8 nM.
